Reference: the nanobody polyreactivity screen of Harvey et al. (2022)

Assay: yeast display, Sf9 membrane polyspecificity reagent, FACS + sequencing; frameworks hold sequencing errors
Summary of the method: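 Synthetic nanobody libraries on Saccharomyces cerevisiae BJ5465 were galactose-induced for 36–48 hours, stained 1 hour at 4 °C with 10% biotinylated, detergent-solubilized Sf9 membrane reagent and enriched on streptavidin microbeads. FACS then separated cells into low and high (top ~1%) gates by anti-HA (expression) and streptavidin (reagent binding) fluorescence. Genes were colony-PCR amplified, MiSeq 2 × 250 sequenced and CDR-length filtered. A clone's polyreactivity label is that of its gate of origin.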

Row | Sequence | polyreactivity (PSR sort gate)
1 | QVQLVESGGGLVQAGGSLRLSCAASGITFDKYPMGRYRPAPGKDRELVAAISGSDGSTYYADSVKGRFTISRDNAKNSVYVQMNSLKPDDTAVYDCAAESVYAGTYEYDYWGQGTQVTVSS | low polyreactivity
2 | QVQLVESGGGLVQAGGSLRLSCAASGITFDRYALGWYRPAPGKEREFVAAISWRGGSTYYADSVKGRFTISRDNAKNTVYLQMNSLKPEDTAVYYCAVGYYDHDYWYEYWGQGTQVTVSS | high polyreactivity
3 | QVQLVESGGGLVQAGGSLRLSCAASGITFDRYAMGWYRQAPGKERELVAAITSGGRTYYADSVKGRFTISRDNAKNTVYLQMNSLKPEDTAVYYCNATRGQYVGRYYYWGQGTQVTVSS | high polyreactivity
4 | QVQLVESGGGLVQAGGSLRLSCAASGITFDSYAMGWYRQAPGKERELVAAISYSGGSTYYADSVKGCFTISRDNAKNTVYLQMNSLKPEDTAVYYCAAASDDDYDYWGQGTQVTVSS | low polyreactivity
5 | QVQLVESGGGLVQAGGSLRLSCAASGITFDSYAMGWYRQAPGKERELVATISRSGTTTYYADSVKGRFTISRDNAKNTVYLQMNSLKPEDTAVYYCNTLRAYWTYHFYGAVRDGYDYWGQGTQVTVSS | low polyreactivity
6 | QVQLVESGGGLVQAGGSLRLSCAASGITFDYYAMGWYRQAPGKERELVAAISYSGGSTYYADSVKGRFTISRDNAKNTVYVQMNSLKPEDTAVYYCAAETFTISSDYYYWGQGTQVTVSS | low polyreactivity
7 | QVQLVESGGGLVQAGGSLRLSCAASGITFEGYAMRWYRQAPGKERELVAAITGSGSTTYYADSVKGRFTISRDNAKNTVYLQMNSLKPEDTAVYYCAADVSYKLYWGQGTQVTVSS | low polyreactivity
8 | QVQLVESGGGLVQAGGSLRLSCAASGITFEHYAMGWYREAPGKERELVAAINRSGDNTYYADSVKGRFTISRDNAKNTVYLQMNSLKPEDTAVNYCNTVELYWRGYDYWGQGTQVTVSS | high polyreactivity
9 | QVQLVESGGGLVQAGGSLRLSCAASGITFEKYAMGGYRQAPGKERELVAAITSSGGSTYYADSVKGRFTISRDNAKNTVYLQMNSLKPEDTAVYYCKARYYYADRTSGGYYYWGQGTQVTVSS | high polyreactivity
10 | QVQLVESGGGLVQAGGSLRLSCAASGITFEPYAMGWYRQAPGKEREFVADITWSGGSTYYADSVKGRFTISRDNAKNTVYLQMNSLKPEDTAVYYCAADGWTSYWSDYWGQGTQVTVAS | low polyreactivity
11 | QVQLVESGGGLVQAGGSLRLSCAASGITFERNGKGWYRQAPGKEWELVAAIRSGGSTYYADSVKGRFTISRDNAKNTVYLQMNSLKPEDTAVYYCAAVTQGGYTYLGDYWGQGTQVTVSS | low polyreactivity
12 | QVQLVESGGGLVQAGGSLRLSCAASGITFFAYAMGWYRQPPGKERELVAAISSGGSTNYADSVKGRFTISRDNAKNTVYLQMNSLKPEDTAVYYCAAVRSDLGEEGYAGYVYWGQGTQVTVSS | low polyreactivity
13 | QVQLVESGGGLVQAGGSLRLSCAASGITFFENAMGWYRQAPGKERELVASISSSGGSTYYADSVKGRFTISRDNAKNTVYLQMNSLKPEDTAVYYCAARYYSQKSYIGFRPGYEYWGQGTQVTVSS | low polyreactivity
14 | QVQLVESGGGLVQAGGSLRLSCAASGITFFGYAMGWYRQAPGKERELVAGISRSTGRTYYADSVMGRFTISRDNAKYTVYLQMNSLKPEDTAVYYCDARATRSLSRYMDYWGQGTQVTVSS | high polyreactivity
15 | QVQLVESGGGLVQAGGSLRLSCAASGITFFRYTMGWYRQAPGKERELVAAINIRGTRTYYADSVKGRFTISRDNAKNTVYLQMNSLKPEDTAVYYCAAGYAYRYSGLSYDVDYWGQGTQVTVSS | high polyreactivity
16 | QVQLVESGGGLVQAGGSLRLSCAASGITFFTYAMGWYRQAPGKEREFVATISYGGGSTYYADSVKGRFTISRDNAKNTVYLQMNSLKPEDTAVYYCNAEGYVPTYFQHYAYWGQGTQVTVSS | low polyreactivity

Row | Sequence | polyreactivity (PSR sort gate)
17 | QVQLVESGGGLVQAGGSLRLSCAASGITFFYNAMGWSRQAPGKERELVADITNSGSTYYADSVKVRFTISRDNAKNTVYLQMNSLKPEDTAVYDCAAGQAYDFFVYYPDDYWGQGTQVTVSS | low polyreactivity
18 | QVQLVESGGGLVQAGGSLRLSCAASGITFGANAMGWYRQAPGKERELVADITWSGGDTYYADSVKGRFTISRDNAKNTVYLQMNSLKPEDTAVYYCNALQPGLGSPLGEYDYWGQGTQVTVSS | low polyreactivity
19 | QVQLVESGGGLVQAGGSLRLSCAASGITFGCNAMGWYRQAPGKEREFVAAITFSDGSTRYADSVKGRFTISRDNAKNTVYLQMNSLKPEDTAVYYCAADTWSDKYDYWGQGTQVTVSS | low polyreactivity
20 | QVQLVESGGGLVQAGGSLRLSCAASGITFGDNAMGWYRQAPGKERELVAAITLSDVDTYADSVKGRFTISRDNAKNTVYLQMNSLKPEDTAVYYCAADYYAHQDYRFDYWGQGTQVTVSS | low polyreactivity
21 | QVQLVESGGGLVQAGGSLRLSCAASGITFGFNAMGWYRQAPGKERELVAAIRWGSGRTYYADSVKGRFTISRDNAKNTVYLQMNSLKPEDTAVYYCAAAPTTGKRPGYYYWGQGTQVTVSS | high polyreactivity
22 | QVQLVESGGGLVQAGGSLRLSCAASGITFGFYTMGWYRQAPGKERELVAAITSGGSTSYADSVKGRFTISRDNAKNTVYLQMNSLKPEDTAVYYCAADYLNPFPPYQYWKQSYDYWGQGTQVTVSS | low polyreactivity
23 | QVQLVESGGGLVQAGGSLRLSCAASGITFGHYAMGWYRQAPGKERELVAAINFSGGSTYYADSVKGRFTISRDNAKNTVYLQMNSLKPEDTAVYYCAAKYSRSLRYPWYNYWGQGTQVTVSS | high polyreactivity
24 | QVQLVESGGGLVQAGGSLRLSCAASGITFGLYSMGWYRQAPGKQRELVASISQSGGSTYYADSVKGRFTISRDNAKNTVYLQMNSLKPEDTAVYYCNARRRFWDFSTRGYDSWGQGTQVTVSS | high polyreactivity
25 | QVQLVESGGGLVQAGGSLRLSCAASGITFGNYAMGWYRQAPGKARELVAAITGSGGRTYYADSVKGRFTISRDNANNTVYLQMNRLKPEYTAVYYCNRRQYGRKKQYDYWGQGTQVTVSS | high polyreactivity
26 | QVQLVESGGGLVQAGGSLRLSCAASGITFGNYAMGWYSQAPGKERELVASFSWNVGSTYYADSVKGRFTISRDNAKNTVYLQMNSLKPEDTAVYYCARGYDRPRVATFHRFDYWGQGTQVTVSS | low polyreactivity
27 | QVQLVESGGGLVQAGGSLRLSCAASGITFGRNTKGWYRQAPGKERELVAAIDSGGNTYADSVKGRFTISRDNAKNTVYLQMNSLKPEDTAVYYCAADSYPAYLGFVGFDYWVQGTQVTVSS | low polyreactivity
28 | QVQLVESGGGLVQAGGSLRLSCAASGITFGRNTKGWYRQAPGKERELVAAIDSGGNTYADSVKGRFTISRDNAKNTVYLQMNSLKPEDTAVYYCNAGYVHSFDYWGQGTQVTVSS | low polyreactivity
29 | QVQLVESGGGLVQAGGSLRLSCAASGITFGRNTMGWYRQAPGKERELVAAIDSGGNTYAVSVKGRFTISRDNAKNTVYLQMNSLKPEDTAVYYCAVDGGEYSYYGTYDYWGQGTQVTVSS | low polyreactivity
30 | QVQLVESGGGLVQAGGSLRLSCAASGITFGRNTMGWYRQAPGKERELVAAITYRSGRTYYADSVKGRFTISRDTAKNTVYLQMNILKPEDTAVYYCNTVSPYYDYDYWGQGTQVTVSS | high polyreactivity
31 | QVQLVESGGGLVQAGGSLRLSCAASGITFGRYAMGWYRQAPGKERELVAAISWSGGSTYYADSVKGRFTLSRDNAKNTVYLQMNSLKPEDTAVYYCAVEWYYTSYHIRFYRDNYWGQGTQVTVSS | high polyreactivity
